Source: US7745147 (VIRANATIVE, dated 2010)

Tests used:
[1] = molecular target: T1, human interferon alpha 16 (human, UniProt P05015 24-189); assay: 3-A3-2 immunoaffinity column, 10,000 IU load; Daudi cell anti-proliferative assay of fractions
T1 construct: also called α16; IFN-α16

human interferon alpha 5 = molecular target: T2, human interferon alpha 5 (human, UniProt P01569 24-189, limits assumed); assay: as above
T2 construct: also called α5; IFN-α5

[2] = molecular target: concentrated crude leukocyte interferon alpha; assay: pilot-scale immunoaffinity chromatography, crude interferon from lab fermenter, experiment P-434
[3] = molecular target: concentrated crude leukocyte interferon alpha; assay: capacity of immunoaffinity gel, 7 mg antibody/mL CNBr-activated Sepharose FF
human interferon alpha 1 = molecular target: T3, human interferon alpha 1 (human, UniProt P0DY56 24-189); assay: immunoaffinity chromatography (Examples 1, 3, 4 and 5)
T3 construct: also called α1; IFN-α1

[4] = molecular target: T4, human interferon alpha 14 (human, UniProt P01570 24-189); assay: immunoaffinity column loaded with crude leukocyte interferon alpha; RP-HPLC of eluate
T4 construct: One entry serves both the natural leukocyte protein and the bought recombinant protein; also called α14; IFN-α14
Description: The antibodies were all bound to CNBr-activated Sepharose gel. […] Impurities and unbound material were removed from the column by washing with buffer. Interferon alpha was eluted with citric-acid buffer, pH2. Unbound, flow-through fractions, and eluate fractions were analysed for interferon alpha using a specific ELISA. The eluate fraction was analysed for its complement of interferon alpha proteins using reversed-phase HPLC (RP-HPLC). Interferon alpha specific activity was determined using a cytopathic protective effect assay with MDBK cells. All samples were analysed twice. The experiments were repeated with a second batch of concentrated crude leukocyte interferon alpha.
Rather, the interferon alpha protein pattern is compared to assess whether all the expected peaks are present.

[5] = molecular target: concentrated crude leukocyte interferon alpha; assay: immunoaffinity chromatography, antibody on CNBr-Sepharose; interferon alpha ELISA of fractions
[6] = molecular target: concentrated crude leukocyte interferon alpha; assay: immunoaffinity chromatography of crude leukocyte interferon alpha (Example 1)
[7] = molecular target: concentrated crude leukocyte interferon alpha; assay: immunoaffinity chromatography, antibody on CNBr-Sepharose; interferon alpha ELISA of fractions; second row for this antibody
[8] = molecular target: concentrated crude leukocyte interferon alpha; assay: pilot-scale immunoaffinity chromatography, crude interferon batch K-543, experiment P-429

binding result [1]: binds
binding result (human interferon alpha 5): binds
IFN-α eluate yield (%) [2]: 70%
interferon capacity [3]: 22.5 MIU/ml gel
binding result (human interferon alpha 1): binds
binding result [4]: binds
Flow-through (%) [5]: 1%
eluate (IU) [5]: 16.5 IU
recovery (%) [5]: 66%
Flow-through (%) [6]: < 5%
Flow-through (%) [7]: 5%
eluate (IU) [7]: 17 IU
recovery (%) [7]: 61%
IFN-α eluate yield (%) [8]: 73%
B1: Monoclonal antibody 3-A3-2 (antibody, mouse IgG1, V domains shown)
VH: QVQLQESGTVLARPGASVKMSCKASGYSFTTYWMHWVKQRPGQGLEWIGVIYPGNGDTTYNQKFKDKAKLTAVTSANTAYMELSSLTNEDSAVYFCTRNYKYDYYTMDYWGQGTTVTVSS
VL: DIVLTQSPASLAVSLGQRATISCRASKSVSTSGHSYMHWYQQKPGQTPKLLIYLASNLESGVPARFSGSGSGTDFTLNIHPVEEEDAATYYCQHSGELPFTFGSGTKLEIK
notes: Murine IgG1/kappa from hybridoma 3-A3-2 (ECACC 05030201); also called monoclonal 3-A3-2; 3A32 Ab
